Like-named read-outs stand apart in the source and are kept apart here.

Series [1] addresses T1, Dpo4 (SsoDpo4, Y-family DNA polymerase) (Sulfolobus solfataricus, UniProt Q97W02 1-352).
T1 sequence: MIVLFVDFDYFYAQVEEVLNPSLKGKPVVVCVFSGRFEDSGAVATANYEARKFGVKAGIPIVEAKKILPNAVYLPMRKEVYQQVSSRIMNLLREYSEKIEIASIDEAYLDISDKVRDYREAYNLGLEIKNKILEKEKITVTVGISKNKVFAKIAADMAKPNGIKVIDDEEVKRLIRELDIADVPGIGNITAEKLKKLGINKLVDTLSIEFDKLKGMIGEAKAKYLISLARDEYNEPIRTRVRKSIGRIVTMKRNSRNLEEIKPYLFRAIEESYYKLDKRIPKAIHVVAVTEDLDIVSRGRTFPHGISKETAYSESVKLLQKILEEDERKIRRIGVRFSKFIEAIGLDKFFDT
Briefly: ITC. A general note: Isothermal titration calorimetry measures the heat released or taken up as one component is titrated into another.

Series [2] has as its target T1, Dpo4 (SsoDpo4, Y-family DNA polymerase). Briefly: ITC. The source holds these as a separate data set.
The series “cross-linking” deals with the molecule itself. Kind of series: cross-linking.

In the case of TTTTTTTTTTCCCGGGCCGGCGTTTCGCCGGCCCGGG (structured_DNA) [37-nt hairpin primer-template, unlabeled], the figures for the Ka in series [1] and in series [2] were 652000 M⁻¹ and 2.23e+06 M⁻¹, respectively.

B1: Dpo4, wild-type untagged, Y-family lesion bypass (repair) DNA polymerase of Sulfolobus solfataricus (enzyme)
chain: T1 sequence
Take B1: the stoichiometry N (commonly a count of units in the complex or per binding partner) in the series “cross-linking” was 2.

The values are drawn from paper PMC3477848 (Biochemistry, 2012).
